Numbered stars: 1 amine (or outer) side, 2 acyl side, 3 side chain; on linkers, the order of the positions; unused ones are H or OH. Square brackets hold non-standard residues; d marks the D form. Side chains are listed from the residue outwards. Ends that are not written are not given here. * marks the point of attachment. γGlu = O=C(O)[C@H](CCC(=O)[*:2])N[*:1]; Palmitoyl = CCCCCCCCCCCCCCCC(=O)*; Myristoyl = CCCCCCCCCCCCCC(=O)*; Lauroyl = CCCCCCCCCCCC(=O)*; Decanoyl = CCCCCCCCCC(=O)*; Nle = CCCC[C@H](N)C(=O)O; Octanoyl = CCCCCCCC(=O)*; GABA = NCCCC(=O)O
Experiments:
[1] = biological target: T1, rat PrRP receptor in RC-4B/C cells (rat, UniProt Q64121 1-370); experiment: competition with 125I-rat PrRP31, RC-4B/C cells
T1 construct: whole, on cells; endogenous receptor of RC-4B/C cells (ATCC); also called rat receptor; GPR10 receptor expressed in rat hypophyseal cells
T1 sequence (looked up): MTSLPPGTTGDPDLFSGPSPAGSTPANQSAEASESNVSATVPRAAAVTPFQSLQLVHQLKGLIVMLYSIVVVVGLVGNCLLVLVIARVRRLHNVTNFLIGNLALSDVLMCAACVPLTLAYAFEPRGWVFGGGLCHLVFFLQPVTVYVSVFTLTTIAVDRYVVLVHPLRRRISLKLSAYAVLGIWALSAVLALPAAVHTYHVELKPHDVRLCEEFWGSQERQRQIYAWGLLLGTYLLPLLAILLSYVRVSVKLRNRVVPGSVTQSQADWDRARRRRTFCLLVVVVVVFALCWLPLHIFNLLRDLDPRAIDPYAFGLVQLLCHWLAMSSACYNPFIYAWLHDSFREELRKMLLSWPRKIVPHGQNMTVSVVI
Summary of the method: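 Incubation 60 min at room temperature; cells solubilized in 0.1 mol/l NaOH and bound radioactivity γ-counted. Run in duplicate, repeated at least three times.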

[2] = biological target: T2, human PrRP receptor GPR10 (human, UniProt P49683 1-370); experiment: competition with 125I-human PrRP31, CHO cells with human GPR10
T2 construct: whole, on cells; also called GPR10 human receptor transfected in CHO cells; human GPR10 receptor
T2 sequence (looked up): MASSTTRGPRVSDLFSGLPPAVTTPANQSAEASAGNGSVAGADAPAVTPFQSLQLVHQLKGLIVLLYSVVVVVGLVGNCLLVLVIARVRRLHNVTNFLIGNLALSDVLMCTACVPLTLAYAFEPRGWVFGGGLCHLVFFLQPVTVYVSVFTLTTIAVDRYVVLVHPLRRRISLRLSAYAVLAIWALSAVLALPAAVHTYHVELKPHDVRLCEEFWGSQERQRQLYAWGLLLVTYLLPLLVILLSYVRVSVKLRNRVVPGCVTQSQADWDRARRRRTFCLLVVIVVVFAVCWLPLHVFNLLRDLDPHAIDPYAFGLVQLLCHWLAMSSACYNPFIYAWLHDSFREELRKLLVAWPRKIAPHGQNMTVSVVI

B1: analog no. 35 (peptide)
peptide: [Nle]ETRTPDINPAWYTGRGIRPVGRF-NH2
modifications: N-terminus assumed
SMILES: CCCC[C@H](N)C(=O)N[C@@H](CCC(=O)O)C(=O)N[C@H](C(=O)N[C@@H](CCCNC(=N)N)C(=O)N[C@H](C(=O)N1CCC[C@H]1C(=O)N[C@@H](CC(=O)O)C(=O)N[C@H](C(=O)N[C@@H](CC(N)=O)C(=O)N1CCC[C@H]1C(=O)N[C@@H](C)C(=O)N[C@@H](Cc1c[nH]c2ccccc12)C(=O)N[C@@H](Cc1ccc(O)cc1)C(=O)N[C@H](C(=O)NCC(=O)N[C@@H](CCCNC(=N)N)C(=O)NCC(=O)N[C@H](C(=O)N[C@@H](CCCNC(=N)N)C(=O)N1CCC[C@H]1C(=O)N[C@H](C(=O)NCC(=O)N[C@@H](CCCNC(=N)N)C(=O)N[C@@H](Cc1ccccc1)C(N)=O)C(C)C)[C@@H](C)CC)[C@@H](C)O)[C@@H](C)CC)[C@@H](C)O)[C@@H](C)O
notes: shortened PrRP31 analog; also called 35 short
% of PrRP31 [1]: 168%
Ki [1]: 2.94 nM
% of PrRP31 [2]: 113%
Ki [2]: 3.44 nM

B2: analog no. 36 (peptide)
peptide: Myristoyl-[Nle]ETRTPDINPAWYTGRGIRPVGRF-NH2
SMILES: CCCCCCCCCCCCCC(=O)N[C@@H](CCCC)C(=O)N[C@@H](CCC(=O)O)C(=O)N[C@H](C(=O)N[C@@H](CCCNC(=N)N)C(=O)N[C@H](C(=O)N1CCC[C@H]1C(=O)N[C@@H](CC(=O)O)C(=O)N[C@H](C(=O)N[C@@H](CC(N)=O)C(=O)N1CCC[C@H]1C(=O)N[C@@H](C)C(=O)N[C@@H](Cc1c[nH]c2ccccc12)C(=O)N[C@@H](Cc1ccc(O)cc1)C(=O)N[C@H](C(=O)NCC(=O)N[C@@H](CCCNC(=N)N)C(=O)NCC(=O)N[C@H](C(=O)N[C@@H](CCCNC(=N)N)C(=O)N1CCC[C@H]1C(=O)N[C@H](C(=O)NCC(=O)N[C@@H](CCCNC(=N)N)C(=O)N[C@@H](Cc1ccccc1)C(N)=O)C(C)C)[C@@H](C)CC)[C@@H](C)O)[C@@H](C)CC)[C@@H](C)O)[C@@H](C)O
notes: lipidized shortened PrRP31 analog; also called 36 short
% of PrRP31 [1]: 1100%
Ki [1]: 0.45 nM
% of PrRP31 [2]: 71%
Ki [2]: 5.48 nM

B3: analog no. 37 (peptide)
peptide: QHSMETRTPDINPAWYTGRGIRPVGRF-NH2
notes: shortened PrRP31 analog; also called 37 short
% of PrRP31 [1]: 189%
Ki [1]: 2.61 nM
% of PrRP31 [2]: 66%
Ki [2]: 5.92 nM

B4: analog no. 38 (peptide)
peptide: Myristoyl-QHSMETRTPDINPAWYTGRGIRPVGRF-NH2
SMILES: CCCCCCCCCCCCCC(=O)N[C@@H](CCC(N)=O)C(=O)N[C@@H](Cc1c[nH]cn1)C(=O)N[C@@H](CO)C(=O)N[C@@H](CCSC)C(=O)N[C@@H](CCC(=O)O)C(=O)N[C@H](C(=O)N[C@@H](CCCNC(=N)N)C(=O)N[C@H](C(=O)N1CCC[C@H]1C(=O)N[C@@H](CC(=O)O)C(=O)N[C@H](C(=O)N[C@@H](CC(N)=O)C(=O)N1CCC[C@H]1C(=O)N[C@@H](C)C(=O)N[C@@H](Cc1c[nH]c2ccccc12)C(=O)N[C@@H](Cc1ccc(O)cc1)C(=O)N[C@H](C(=O)NCC(=O)N[C@@H](CCCNC(=N)N)C(=O)NCC(=O)N[C@H](C(=O)N[C@@H](CCCNC(=N)N)C(=O)N1CCC[C@H]1C(=O)N[C@H](C(=O)NCC(=O)N[C@@H](CCCNC(=N)N)C(=O)N[C@@H](Cc1ccccc1)C(N)=O)C(C)C)[C@@H](C)CC)[C@@H](C)O)[C@@H](C)CC)[C@@H](C)O)[C@@H](C)O
notes: lipidized shortened PrRP31 analog; also called 38 short
% of PrRP31 [1]: 1330%
Ki [1]: 0.37 nM
% of PrRP31 [2]: 56%
Ki [2]: 6.93 nM

B5: analog no. 39 (peptide)
peptide: Octanoyl-TPDINPAWYASRGIRPVGRF-NH2
SMILES: CCCCCCCC(=O)N[C@H](C(=O)N1CCC[C@H]1C(=O)N[C@@H](CC(=O)O)C(=O)N[C@H](C(=O)N[C@@H](CC(N)=O)C(=O)N1CCC[C@H]1C(=O)N[C@@H](C)C(=O)N[C@@H](Cc1c[nH]c2ccccc12)C(=O)N[C@@H](Cc1ccc(O)cc1)C(=O)N[C@@H](C)C(=O)N[C@@H](CO)C(=O)N[C@@H](CCCNC(=N)N)C(=O)NCC(=O)N[C@H](C(=O)N[C@@H](CCCNC(=N)N)C(=O)N1CCC[C@H]1C(=O)N[C@H](C(=O)NCC(=O)N[C@@H](CCCNC(=N)N)C(=O)N[C@@H](Cc1ccccc1)C(N)=O)C(C)C)[C@@H](C)CC)[C@@H](C)CC)[C@@H](C)O
% of PrRP31 [1]: 530%
Ki [1]: 0.93 nM
% of PrRP31 [2]: 201%
Ki [2]: 1.94 nM

B6: analog no. 40 (peptide)
peptide: Decanoyl-TPDINPAWYASRGIRPVGRF-NH2
SMILES: CCCCCCCCCC(=O)N[C@H](C(=O)N1CCC[C@H]1C(=O)N[C@@H](CC(=O)O)C(=O)N[C@H](C(=O)N[C@@H](CC(N)=O)C(=O)N1CCC[C@H]1C(=O)N[C@@H](C)C(=O)N[C@@H](Cc1c[nH]c2ccccc12)C(=O)N[C@@H](Cc1ccc(O)cc1)C(=O)N[C@@H](C)C(=O)N[C@@H](CO)C(=O)N[C@@H](CCCNC(=N)N)C(=O)NCC(=O)N[C@H](C(=O)N[C@@H](CCCNC(=N)N)C(=O)N1CCC[C@H]1C(=O)N[C@H](C(=O)NCC(=O)N[C@@H](CCCNC(=N)N)C(=O)N[C@@H](Cc1ccccc1)C(N)=O)C(C)C)[C@@H](C)CC)[C@@H](C)CC)[C@@H](C)O
% of PrRP31 [1]: 1200%
Ki [1]: 0.41 nM
% of PrRP31 [2]: 129%
Ki [2]: 3.02 nM

B7: analog no. 41 (peptide)
peptide: Lauroyl-TPDINPAWYASRGIRPVGRF-NH2
SMILES: CCCCCCCCCCCC(=O)N[C@H](C(=O)N1CCC[C@H]1C(=O)N[C@@H](CC(=O)O)C(=O)N[C@H](C(=O)N[C@@H](CC(N)=O)C(=O)N1CCC[C@H]1C(=O)N[C@@H](C)C(=O)N[C@@H](Cc1c[nH]c2ccccc12)C(=O)N[C@@H](Cc1ccc(O)cc1)C(=O)N[C@@H](C)C(=O)N[C@@H](CO)C(=O)N[C@@H](CCCNC(=N)N)C(=O)NCC(=O)N[C@H](C(=O)N[C@@H](CCCNC(=N)N)C(=O)N1CCC[C@H]1C(=O)N[C@H](C(=O)NCC(=O)N[C@@H](CCCNC(=N)N)C(=O)N[C@@H](Cc1ccccc1)C(N)=O)C(C)C)[C@@H](C)CC)[C@@H](C)CC)[C@@H](C)O
% of PrRP31 [1]: 822%
Ki [1]: 0.6 nM
% of PrRP31 [2]: 161%
Ki [2]: 2.41 nM

B8: analog no. 53 (peptide)
peptide: SRTHRHSMEIK([GABA-Palmitoyl])TPDINPAWYASRGIRPVGRF-NH2
% of PrRP31 [1]: 190%
Ki [1]: 1.26 nM
% of PrRP31 [2]: 42.5%
Ki [2]: 9.19 nM

B9: analog no. 55 (peptide)
peptide: SETHRHSMEIK([γGlu-Palmitoyl])TPDINPAWYASRGIRPVGRF-NH2
% of PrRP31 [1]: 236%
% of PrRP31 [2]: 83%
Ki [2]: 4.72 nM

B10: analog no. 56 (peptide)
peptide: SETHEHSMEIK([γGlu-Palmitoyl])TPDINPAWYASRGIRPVGRF-NH2
modifications: N-terminus assumed
SMILES: CCCCCCCCCCCCCCCC(=O)N[C@@H](CCC(=O)NCCCC[C@H](NC(=O)[C@@H](NC(=O)[C@H](CCC(=O)O)NC(=O)[C@H](CCSC)NC(=O)[C@H](CO)NC(=O)[C@H](Cc1c[nH]cn1)NC(=O)[C@H](CCC(=O)O)NC(=O)[C@H](Cc1c[nH]cn1)NC(=O)[C@@H](NC(=O)[C@H](CCC(=O)O)NC(=O)[C@@H](N)CO)[C@@H](C)O)[C@@H](C)CC)C(=O)N[C@H](C(=O)N1CCC[C@H]1C(=O)N[C@@H](CC(=O)O)C(=O)N[C@H](C(=O)N[C@@H](CC(N)=O)C(=O)N1CCC[C@H]1C(=O)N[C@@H](C)C(=O)N[C@@H](Cc1c[nH]c2ccccc12)C(=O)N[C@@H](Cc1ccc(O)cc1)C(=O)N[C@@H](C)C(=O)N[C@@H](CO)C(=O)N[C@@H](CCCNC(=N)N)C(=O)NCC(=O)N[C@H](C(=O)N[C@@H](CCCNC(=N)N)C(=O)N1CCC[C@H]1C(=O)N[C@H](C(=O)NCC(=O)N[C@@H](CCCNC(=N)N)C(=O)N[C@@H](Cc1ccccc1)C(N)=O)C(C)C)[C@@H](C)CC)[C@@H](C)CC)[C@@H](C)O)C(=O)O
% of PrRP31 [1]: 57%
Ki [1]: 4.23 nM
% of PrRP31 [2]: 57%
Ki [2]: 5.66 nM

B11: analog no. 57 (peptide)
peptide: SRTHRHSMEIKTPDINPAWYASRGIRPVGRF-NH2
modifications: not fully specified (residue 11)
% of PrRP31 [1]: 663%
Ki [1]: 0.36 nM
% of PrRP31 [2]: 103%
Ki [2]: 3.79 nM

B12: analog no. 59 (peptide)
peptide: SRTHRHSMEIKTPDINPAWYASRGIRPVGRF
modifications: (N-palm(N-POE)) at the N-terminus; K(N-palm(N-POE)) at residue 11; C-terminal amide
% of PrRP31 [1]: 85%
Ki [1]: 2.82 nM
% of PrRP31 [2]: 12%
Ki [2]: 32.4 nM

— US20150196651A1 (published 2015)
